# Source: patent publication US20260263609A1 (NEW YORK UNIVERSITY, published 2026)
# Residue numbers refer to the chain shown, from its start.
# B1: Mb(NRAS_19) (designed binder)
# chain: VSSVPTKLEVVAATPTSLLISWDAPAVTVDFYVITYGETGSYYPYAQEFKVPGSKSTATISGLSPGVDYTITVYAYQVIGAIWKYYSPISINYRT
# B2: Mb(NRAS_24) with the FG loop of SEQ ID NO: 63 (designed binder)
# chain: B1 chain with S41G, Y43A, P44W, Y45A, A46Y, I79S
# notes: length of the loop entry not visible
# B3: Mb(NRAS_24) with the FG loop of SEQ ID NO: 42 (designed binder)
# chain: B1 chain with S41G, Y43A, P44W, Y45A, A46Y, G80E, A81H
# notes: as for B2
# B4: Mb(NRAS_24) with the FG loop of SEQ ID NO: 29 (designed binder)
# chain: B1 chain with S41G, Y43A, P44W, Y45A, A46Y, V78L, I79Y
# notes: as for B2
# B5: Mb(NRAS_24) with the FG loop of SEQ ID NO: 41 (designed binder)
# chain: B1 chain with S41G, Y43A, P44W, Y45A, A46Y, G80D, A81Y
# notes: as for B2
# B6: Mb(NRAS_24) with the FG loop of SEQ ID NO: 21 (designed binder)
# chain: B1 chain with S41G, Y43A, P44W, Y45A, A46Y, V78I, I79L
# notes: as for B2
# B7: Mb(NRAS_24) with the FG loop of SEQ ID NO: 20 (designed binder)
# chain: B1 chain with S41G, Y43A, P44W, Y45A, A46Y, V78I, I79K
# notes: as for B2
# B8: Mb(NRAS_24) with the FG loop of SEQ ID NO: 49 (designed binder)
# chain: B1 chain with S41G, Y43A, P44W, Y45A, A46Y, G80H, A81Y
# notes: as for B2
# B9: Mb(NRAS_24) with the FG loop of SEQ ID NO: 52 (designed binder)
# chain: B1 chain with S41G, Y43A, P44W, Y45A, A46Y, G80K, A81Y
# notes: as for B2
# B10: Mb(NRAS_24) with the FG loop of SEQ ID NO: 32 (designed binder)
# chain: B1 chain with S41G, Y43A, P44W, Y45A, A46Y, V78T, I79H
# notes: as for B2
# B11: Mb(NRAS_24) with the FG loop of SEQ ID NO: 33 (designed binder)
# chain: B1 chain with S41G, Y43A, P44W, Y45A, A46Y, V78T, I79L
# notes: as for B2
# B12: Mb(NRAS_24) with the FG loop of SEQ ID NO: 45 (designed binder)
# chain: B1 chain with S41G, Y43A, P44W, Y45A, A46Y, W83C
# notes: as for B2
# B13: Mb(NRAS_24) with the FG loop of SEQ ID NO: 48 (designed binder)
# chain: B1 chain with S41G, Y43A, P44W, Y45A, A46Y, G80H, A81S
# notes: as for B2
# B14: Mb(NRAS_24) with the FG loop of SEQ ID NO: 30 (designed binder)
# chain: B1 chain with S41G, Y43A, P44W, Y45A, A46Y, V78T, I79D
# notes: as for B2
# B15: Mb(NRAS_24) with the FG loop of SEQ ID NO: 61 (designed binder)
# chain: B1 chain with S41G, Y43A, P44W, Y45A, A46Y, G80Y, A81H
# notes: as for B2
# B16: Mb(NRAS_24) with the FG loop of SEQ ID NO: 35 (designed binder)
# chain: B1 chain with S41G, Y43A, P44W, Y45A, A46Y, V78T, I79Y
# notes: as for B2
# B17: Mb(NRAS_24) with the FG loop of SEQ ID NO: 39 (designed binder)
# chain: B1 chain with S41G, Y43A, P44W, Y45A, A46Y, G80D, A81H
# notes: as for B2
# B18: Mb(NRAS_24) with the FG loop of SEQ ID NO: 25 (designed binder)
# chain: B1 chain with S41G, Y43A, P44W, Y45A, A46Y, V78L, I79D
# notes: as for B2
# B19: Mb(NRAS_24) with the FG loop of SEQ ID NO: 38 (designed binder)
# chain: B1 chain with S41G, Y43A, P44W, Y45A, A46Y, G80A, A81Y
# notes: as for B2
# B20: Mb(NRAS_24) with the FG loop of SEQ ID NO: 31 (designed binder)
# chain: B1 chain with S41G, Y43A, P44W, Y45A, A46Y, V78T, I79E
# notes: as for B2
# B21: Mb(NRAS_24) with the FG loop of SEQ ID NO: 26 (designed binder)
# chain: B1 chain with S41G, Y43A, P44W, Y45A, A46Y, V78L, I79E
# notes: as for B2
# B22: Mb(NRAS_24) with the FG loop of SEQ ID NO: 40 (designed binder)
# chain: B1 chain with S41G, Y43A, P44W, Y45A, A46Y, G80D, A81S
# notes: as for B2
# B23: Mb(NRAS_24) with the FG loop of SEQ ID NO: 59 (designed binder)
# chain: B1 chain with S41G, Y43A, P44W, Y45A, A46Y, G80S, A81Y
# notes: as for B2
# B24: Mb(NRAS_24) with the FG loop of SEQ ID NO: 53 (designed binder)
# chain: B1 chain with S41G, Y43A, P44W, Y45A, A46Y, G80L, A81H
# notes: as for B2
# B25: Mb(NRAS_24) with the FG loop of SEQ ID NO: 37 (designed binder)
# chain: B1 chain with S41G, Y43A, P44W, Y45A, A46Y, G80A, A81S
# notes: as for B2
# B26: Mb(NRAS_24) with the FG loop of SEQ ID NO: 55 (designed binder)
# chain: B1 chain with S41G, Y43A, P44W, Y45A, A46Y, G80R, A81S
# notes: as for B2
# B27: Mb(NRAS_24) with the FG loop of SEQ ID NO: 43 (designed binder)
# chain: B1 chain with S41G, Y43A, P44W, Y45A, A46Y, G80E, A81S
# notes: as for B2
# B28: Mb(NRAS_24) with the FG loop of SEQ ID NO: 64 (designed binder)
# chain: B1 chain with S41G, Y43A, P44W, Y45A, A46Y, V78Y, I79E
# notes: as for B2
# B29: Mb(NRAS_24) with the FG loop of SEQ ID NO: 50 (designed binder)
# chain: B1 chain with S41G, Y43A, P44W, Y45A, A46Y, G80K, A81H
# notes: as for B2
# B30: Mb(NRAS_24) with the FG loop of SEQ ID NO: 23 (designed binder)
# chain: B1 chain with S41G, Y43A, P44W, Y45A, A46Y, V78I, I79V
# notes: as for B2
# B31: Mb(NRAS_24) with the FG loop of SEQ ID NO: 67 (designed binder)
# chain: B1 chain with S41G, Y43A, P44W, Y45A, A46Y, V78Y, I79Y
# notes: as for B2
# B32: Mb(NRAS_24) with the FG loop of SEQ ID NO: 28 (designed binder)
# chain: B1 chain with S41G, Y43A, P44W, Y45A, A46Y, V78L, I79L
# notes: as for B2
# B33: Mb(NRAS_24) with the FG loop of SEQ ID NO: 51 (designed binder)
# chain: B1 chain with S41G, Y43A, P44W, Y45A, A46Y, G80K, A81S
# notes: as for B2
# B34: Mb(NRAS_24) with the FG loop of SEQ ID NO: 19 (designed binder)
# chain: B1 chain with S41G, Y43A, P44W, Y45A, A46Y, V78I, I79H
# notes: as for B2
# B35: Mb(NRAS_24) with the FG loop of SEQ ID NO: 44 (designed binder)
# chain: B1 chain with S41G, Y43A, P44W, Y45A, A46Y, G80E, A81Y
# notes: as for B2
# B36: Mb(NRAS_24) with the FG loop of SEQ ID NO: 58 (designed binder)
# chain: B1 chain with S41G, Y43A, P44W, Y45A, A46Y, G80S, A81S
# notes: as for B2
# B37: Mb(NRAS_24) with the FG loop of SEQ ID NO: 54 (designed binder)
# chain: B1 chain with S41G, Y43A, P44W, Y45A, A46Y, G80R, A81H
# notes: as for B2
# B38: Mb(NRAS_24) with the FG loop of SEQ ID NO: 47 (designed binder)
# chain: B1 chain with S41G, Y43A, P44W, Y45A, A46Y, G80H, A81H
# notes: as for B2
# B39: Mb(NRAS_24) with the FG loop of SEQ ID NO: 15 (designed binder)
# chain: B1 chain with S41G, Y43A, P44W, Y45A, A46Y, Y76S
# notes: as for B2
# B40: Mb(NRAS_24) with the FG loop of SEQ ID NO: 65 (designed binder)
# chain: B1 chain with S41G, Y43A, P44W, Y45A, A46Y, V78Y, I79H
# notes: as for B2
# B41: Mb(NRAS_24) with the FG loop of SEQ ID NO: 60 (designed binder)
# chain: B1 chain with S41G, Y43A, P44W, Y45A, A46Y, G80T, A81H
# notes: as for B2
# B42: Mb(NRAS_24) with the FG loop of SEQ ID NO: 56 (designed binder)
# chain: B1 chain with S41G, Y43A, P44W, Y45A, A46Y, G80R, A81Y
# notes: as for B2
# B43: Mb(NRAS_24) with the FG loop of SEQ ID NO: 36 (designed binder)
# chain: B1 chain with S41G, Y43A, P44W, Y45A, A46Y, G80A, A81H
# notes: as for B2
# B44: Mb(NRAS_24) with the FG loop of SEQ ID NO: 62 (designed binder)
# chain: B1 chain with S41G, Y43A, P44W, Y45A, A46Y, G80Y, A81Y
# notes: as for B2
# B45: Mb(NRAS_24) with the FG loop of SEQ ID NO: 27 (designed binder)
# chain: B1 chain with S41G, Y43A, P44W, Y45A, A46Y, V78L, I79H
# notes: as for B2
# B46: Mb(NRAS_24) with the FG loop of SEQ ID NO: 22 (designed binder)
# chain: B1 chain with S41G, Y43A, P44W, Y45A, A46Y, V78I, I79R
# notes: as for B2
# B47: Mb(NRAS_24) with the FG loop of SEQ ID NO: 17 (designed binder)
# chain: B1 chain with S41G, Y43A, P44W, Y45A, A46Y, V78I, I79D
# notes: as for B2
# B48: Mb(NRAS_24) with the FG loop of SEQ ID NO: 24 (designed binder)
# chain: B1 chain with S41G, Y43A, P44W, Y45A, A46Y, V78I, I79Y
# notes: as for B2
# B49: Mb(NRAS_24) with the FG loop of SEQ ID NO: 66 (designed binder)
# chain: B1 chain with S41G, Y43A, P44W, Y45A, A46Y, V78Y, I79V
# notes: as for B2
# B50: Mb(NRAS_24) with the FG loop of SEQ ID NO: 16 (designed binder)
# chain: B1 chain with S41G, Y43A, P44W, Y45A, A46Y, Q77H
# notes: as for B2
# B51: Mb(NRAS_24) with the FG loop of SEQ ID NO: 46 (designed binder)
# chain: B1 chain with S41G, Y43A, P44W, Y45A, A46Y, I82L
# notes: as for B2
# B52: Mb(NRAS_24) with the FG loop of SEQ ID NO: 57 (designed binder)
# chain: B1 chain with S41G, Y43A, P44W, Y45A, A46Y, G80S, A81H
# notes: as for B2
# B53: Mb(NRAS_24) with the FG loop of SEQ ID NO: 34 (designed binder)
# chain: B1 chain with S41G, Y43A, P44W, Y45A, A46Y, V78T, I79V
# notes: as for B2
# B54: Mb(NRAS_24) with the FG loop of SEQ ID NO: 18 (designed binder)
# chain: B1 chain with S41G, Y43A, P44W, Y45A, A46Y, V78I, I79E
# notes: as for B2
# Molecular target: T1, NRAS (K135R) (human, UniProt P01111 1-174, limits assumed)
# T1 construct: also called NRAS mutant with the H/KRAS-mimicking mutation K135R
# Assay: BLI; sensorgrams at 100 nM and 25 nM with fit; nucleotide state not marked
row,Binder,Kd [nM]
1,B1,6.6

# Molecular target: T2, NRAS (human, UniProt P01111 1-174, limits assumed)
# T2 construct: also called Neuroblastoma-RAS; NRAS (WT)
# Assay: yeast display, cells sorted for binding to NRAS (WT);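 also: Yeast-displayed monobody variants with one or two residue substitutions, monobody sequences read from cells recovered by sorting for binding to wild-type NRAS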
row,Binder,binding result
1,B2,binds
2,B3,binds
3,B4,binds
4,B5,binds
5,B6,binds
6,B7,binds
7,B8,binds
8,B9,binds
9,B10,binds
10,B11,binds
11,B12,binds
12,B13,binds
13,B14,binds
14,B15,binds
15,B16,binds
16,B17,binds
17,B18,binds
18,B19,binds
19,B20,binds
20,B21,binds
21,B22,binds
22,B23,binds
23,B24,binds
24,B25,binds
25,B26,binds
26,B27,binds
27,B28,binds

row,Binder,binding result
1,B29,binds
2,B30,binds
3,B31,binds
4,B32,binds
5,B33,binds
6,B34,binds
7,B35,binds
8,B36,binds
9,B37,binds
10,B38,binds
11,B39,binds
12,B40,binds
13,B41,binds
14,B42,binds
15,B43,binds
16,B44,binds
17,B45,binds
18,B46,binds
19,B47,binds
20,B48,binds
21,B49,binds
22,B50,binds
23,B51,binds
24,B52,binds
25,B53,binds
26,B54,binds

# Molecular target: T2, NRAS
# Assay: BLI; biotinylated monobody on streptavidin tip, NRAS(WT)·GDP at 50, 25, 12.5 and 6.25 nM; global 1:1 fit
row,Binder,Kd [nM]
1,B1,1.8

# Molecular target: T2, NRAS
# Assay: BLI; biotinylated monobody on streptavidin tip, NRAS(WT)·GTPγS at 50, 25, 12.5 and 6.25 nM; global 1:1 fit
row,Binder,Kd [nM]
1,B1,0.83
